Results on 2 substances are retold here after article PMC4835082.

The target of one test is factor X (UniProt P00742).
A further test addresses factor Xa (UniProt P00742).

Sequence of daboxin P (C0HK16 whole entry): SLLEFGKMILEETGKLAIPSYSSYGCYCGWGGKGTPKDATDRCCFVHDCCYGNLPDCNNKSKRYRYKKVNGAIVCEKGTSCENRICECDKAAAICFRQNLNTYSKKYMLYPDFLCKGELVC

Regarding daboxin P (enzyme), in the test with factor X, the IC50 of inhibition of FXa generation by the extrinsic tenase complex (ETC), in the presence of phospholipids, chromogenic substrate S-2222 was 0.43 nM; the IC50 of inhibition of FXa generation by the intrinsic tenase complex (ITC), in the presence of phospholipids, chromogenic substrate S-2222 was found to be 39.2 nM; the residual activity of ETC (with phospholipids) upon treatment with 3 uM of daboxin P turned out to be 9.05%; the residual activity of ETC reconstituted without phospholipid, treated with daboxin P stood at 25%. In the test with factor X, this substance yielded a residual activity of ITC (with phospholipids) upon treatment with 3 uM of daboxin P of 2.8% and a residual activity of ITC reconstituted without phospholipid, treated with daboxin P of 20.1%. For the same substance, in the test with factor Xa, the residual activity of the prothrombinase complex (thrombin formation, S-2238) when daboxin P was pre-incubated with FXa followed by addition of FVa was 11.3%.
For alkylated daboxin P (enzyme), in the test with factor X, the residual activity of ETC treated with alkylated daboxin P (3 uM) came to 23% and the residual activity of ITC treated with alkylated daboxin P (3 uM) came out at 19%.
